Data from PMC13233901.

B1: wild type (WT) estrogen receptor [human (endogenous in and MCF7)] / progesterone receptor [human (endogenous in and MCF7)] (parent)
chain 1: MTMTLHTKASGMALLHQIQGNELEPLNRPQLKIPLERPLGEVYLDSSKPAVYNYPEGAAYEFNAAAAANAQVYGQTGLPYGPGSEAAAFGSNGLGGFPPLNSVSPSPLMLLHPPPQLSPFLQPHGQQVPYYLENEPSGYTVREAGPPAFYRPNSDNRRQGGRERLASTNDKGSMAMESAKETRYCAVCNDYASGYHYGVWSCEGCKAFFKRSIQGHNDYMCPATNQCTIDKNRRKSCQACRLRKCYEVGMMKGGIRKDRRGGRMLKHKRQRDDGEGRGEVGSAGDMRAANLWPSPLMIKRSKKNSLALSLTADQMVSALLDAEPPILYSEYDPTRPFSEASMMGLLTNLADRELVHMINWAKRVPGFVDLTLHDQVHLLECAWLEILMIGLVWRSMEHPGKLLFAPNLLLDRNQGKCVEGMVEIFDMLLATSSRFRMMNLQGEEFVCLKSIILLNSGVYTFLSSTLKSLEEKDHIHRVLDKITDTLIHLMAKAGLTLQQQHQRLAQLLLILSHIRHMSNKGMEHLYSMKCKNVVPLYDLLLEMLDAHRLHAPTSRGGASVEETDQSHLATAGSTSSHSLQKYYITGEAEGFPATV
chain 2: MTELKAKGPRAPHVAGGPPSPEVGSPLLCRPAAGPFPGSQTSDTLPEVSAIPISLDGLLFPRPCQGQDPSDEKTQDQQSLSDVEGAYSRAEATRGAGGSSSSPPEKDSGLLDSVLDTLLAPSGPGQSQPSPPACEVTSSWCLFGPELPEDPPAAPATQRVLSPLMSRSGCKVGDSSGTAAAHKVLPRGLSPARQLLLPASESPHWSGAPVKPSPQAAAVEVEEEDGSESEESAGPLLKGKPRALGGAAAGGGAAAVPPGAAAGGVALVPKEDSRFSAPRVALVEQDAPMAPGRSPLATTVMDFIHVPILPLNHALLAARTRQLLEDESYDGGAGAASAFAPPRSSPCASSTPVAVGDFPDCAYPPDAEPKDDAYPLYSDFQPPALKIKEEEEGAEASARSPRSYLVAGANPAAFPDFPLGPPPPLPPRATPSRPGEAAVTAAPASASVSSASSSGSTLECILYKAEGAPPQQGPFAPPPCKAPGASGCLLPRDGLPSTSASAAAAGAAPALYPALGLNGLPQLGYQAAVLKEGLPQVYPPYLNYLRPDSEASQSPQYSFESLPQKICLICGDEASGCHYGVLTCGSCKVFFKRAMEGQHNYLCAGRNDCIVDKIRRKNCPACRLRKCCQAGMVLGGRKFKKFNKVRVVRALDAVALPQPVGVPNESQALSQRFTFSPGQDIQLIPPLINLLMSIEPDVIYAGHDNTKPDTSSSLLTSLNQLGERQLLSVVKWSKSLPGFRNLHIDDQITLIQYSWMSLMVFGLGWRSYKHVSGQMLYFAPDLILNEQRMKESSFYSLCLTMWQIPQEFVKLQVSQEEFLCMKVLLLLNTIPLEGLRSQTQFEEMRSSYIRELIKAIGLRQKGVVSSSQRFYQLTKLLDNLHDLVKQLHLYCLNTFIQSRALSVEFPEMMSEVIAAQLPKILAGMVKPLLFHKK

Variants of: B1
Assay: proximity ligation assay (PLA)
Details: with progesterone receptor [human (endogenous in T47D and MCF7)], read off a plot
[1] = MCF7 cells, basal (no added hormone), parent: 1.2
[2] = T47D cells, basal (no added hormone), parent: 6.4

| response [1] [Dots/Cell] | response [2] [Dots/Cell] | response (T47D cells, R5020 (10 nM) for 30 min, parent: 11) [Dots/Cell] | Variant |
| --- | --- | --- | --- |
| 0.58 | 1 | – | chain 1 MTMTLHTKASGMALLHQIQGNELEPLNRPQLKIPLERPLGEVYLDSSKPAVYNYPEGAAYEFNAAAAANAQVYGQTGLPYGPGSEAAAFGSNGLGGFPPLNSVSPSPLMLLHPPPQLSPFLQPHGQQVPYYLENEPSGYTVREAGPPAFYRPNSDNRRQGGRERLASTNDKGSMAMESAKETRYCAVCNDYASGYHYGVWSCEGCKAFFKRSIQGHNDYMCPATNQCTIDKNRRKSCQACRLRKCYEVGMMKGGIRKDRRGGRMLKHKRQRDDGEGRGEVGSAGDMRAANLWPSPLMIKRSKKNSLALSLTADQMVSALLDAEPPILYSEYDPTRPFSEASMMGLLTNLADRELVHMINWAKRVPGFVDLTLHDQVHLLECAWLEILMIGLVWRSMEHPGKLLFAPNLLLDRNQGKCVEGMVEIFDMLLATSSRFRMMNLQGEEFVCLKSIILLNSGVYTFLSSTLKSLEEKDHIHRVLDKITDTLIHLMAKAGLTLQQQHQRLAQLLLILSHIRHMSNKGMEHLYSMKCKNVVPLYGLLLEMLDAHRLHAPTSRGGASVEETDQSHLATAGSTSSHSLQKYYITGEAEGFPATV [chain 1 D538G] |
| 0.68 | 1.6 | 13 | chain 1 MTMTLHTKASGMALLHQIQGNELEPLNRPQLKIPLERPLGEVYLDSSKPAVYNYPEGAAYEFNAAAAANAQVYGQTGLPYGPGSEAAAFGSNGLGGFPPLNSVSPSPLMLLHPPPQLSPFLQPHGQQVPYYLENEPSGYTVREAGPPAFYRPNSDNRRQGGRERLASTNDKGSMAMESAKETRYCAVCNDYASGYHYGVWSCEGCKAFFKRSIQGHNDYMCPATNQCTIDKNRRKSCQACRLRKCYEVGMMKGGIRKDRRGGRMLKHKRQRDDGEGRGEVGSAGDMRAANLWPSPLMIKRSKKNSLALSLTADQMVSALLDAEPPILYSEYDPTRPFSEASMMGLLTNLADRELVHMINWAKRVPGFVDLTLHDQVHLLECAWLEILMIGLVWRSMEHPGKLLFAPNLLLDRNQGKCVEGMVEIFDMLLATSSRFRMMNLQGEEFVCLKSIILLNSGVYTFLSSTLKSLEEKDHIHRVLDKITDTLIHLMAKAGLTLQQQHQRLAQLLLILSHIRHMSNKGMEHLYSMKCKNVVPLSDLLLEMLDAHRLHAPTSRGGASVEETDQSHLATAGSTSSHSLQKYYITGEAEGFPATV [chain 1 Y537S] |
